We go through one molecule from patent publication US6429304 (University of California, dated 2002).

The test concerns the target T1, p80 delta 560-690 (S. purpuratus p80 katanin lacking the C-terminal 130 amino acids), in vitro translated … (Strongylocentrotus purpuratus, UniProt O61585 1-559).
T1 construct: The residues kept are derived from the deletion named; also called delta 560-690 derivative of p80; not shown: 37 amino acid N-terminal S-Tag from pCITE-4a+ (Novagen)
T1 sequence: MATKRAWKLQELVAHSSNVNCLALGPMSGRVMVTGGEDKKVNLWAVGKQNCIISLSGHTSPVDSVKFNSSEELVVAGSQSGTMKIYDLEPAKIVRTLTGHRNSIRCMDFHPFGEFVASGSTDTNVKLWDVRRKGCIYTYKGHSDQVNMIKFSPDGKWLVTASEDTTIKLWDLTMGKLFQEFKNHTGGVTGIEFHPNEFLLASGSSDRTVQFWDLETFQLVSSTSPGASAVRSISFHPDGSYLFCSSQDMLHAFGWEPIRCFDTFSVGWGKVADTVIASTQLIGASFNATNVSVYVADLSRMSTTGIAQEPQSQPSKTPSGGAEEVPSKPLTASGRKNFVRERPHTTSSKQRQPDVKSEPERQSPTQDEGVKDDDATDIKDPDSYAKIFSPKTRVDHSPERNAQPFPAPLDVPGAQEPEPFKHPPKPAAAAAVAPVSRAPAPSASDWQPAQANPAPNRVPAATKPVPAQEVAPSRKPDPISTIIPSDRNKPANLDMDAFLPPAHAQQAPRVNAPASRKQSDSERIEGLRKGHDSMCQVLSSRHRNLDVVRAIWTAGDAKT
Kind of test: co-translation in rabbit reticulocyte lysate, immunoprecipitation with anti-p60 antibody. As to the method:
In vitro synthesis of proteins directly from plasmid DNAs was accomplished using the Single Tube Protein System 2, T7 (Novagen). […] For immunoprecipitations, lysates were incubated on ice with Pansorbin (Calbiochem)-antibody complexes, washed in NET buffer (50 mM Tris-Cl (pH 7.5), 150 mM NaCl, 0.1% Nonidet P40, 1 mM EDTA (pH 8.0), 0.25% gelatin and 0.02% sodium azide), then resuspended in SDS-PAGE sample buffer. In vitro translation products in both the pellets and supernatants from the immunoprecipitations were resolved by SDS-PAGE, transferred to nitrocellulose, probed with S-protein HRP conjugate (Novagen) and detected by chemiluminescence.

B1: in vitro translated S. purpuratus p60 katanin with 37 amino acid N-terminal S-Tag (enzyme)
chain: MSVDEICENTKMGREYALLGNYETSLVYYQGVLQQIQKLLTSVHEPQRKHQWQTIRQELSQEYEHVKNITKTLNGFKSEPAAPEPAPNHRAAPFSHHQHAAKPAAAEPARDPDVWPPPTPVDHRPSPPYQRAARKDPPRRSEPSKPANRAPGNDRGGRGPSDRRGDARSGGGGRGGARGSDKDKNRGGKSDKDKKAPSGEEGDEKKFDPAGYDKDLVENLERDIVQRNPNVHWADIAGLTEAKRLLEEAVVLPLWMPDYFKGIRRPWKGVLMVGPPGTGKTMLAKAVATECGTTFFNVSSASLTSKYHGESEKLVRLLFEMARFYAPSTIFIDEIDSICSKRGTGSEHEASRRVKSELLIQMDGVSGPSAGEESSKMVMVLAATNFPWDIDEALRRRLEKRIYIPLPEIDGREQLLRINLKEVPLADDIDLKSIAEKMDGYSGADITNVCRDASMMAMRRRIQGLRPEEIRHIPKEELNQPSTPADFLLALQKVSKSVGKEDLVKYMAWMEEFGSV
notes: Made in a rabbit reticulocyte coupled transcription-translation reaction; not shown: 37 amino acid N-terminal S-Tag from pCITE-4a+ (Novagen)
With B1, the binding result is “no binding”.
